B1: Indian hedgehog protein (Mus musculus), P97812 (parent)
chain: MSPAWLRPRLRFCLFLLLLLLVPAARGCGPGRVVGSRRRPPRKLVPLAYKQFSPNVPEKTLGASGRYEGKIARSSERFKELTPNYNPDIIFKDEENTGADRLMTQRCKDRLNSLAISVMNQWPGVKLRVTEGWDEDGHHSEESLHYEGRAVDITTSDRDRNKYGLLARLAVEAGFDWVYYESKAHVHCSVKSEHSAAAKTGGCFPAGAQVRLENGERVALSAVKPGDRVLAMGEDGTPTFSDVLIFLDREPNRLRAFQVIETQDPPRRLALTPAHLLFIADNHTEPAAHFRATFASHVQPGQYVLVSGVPGLQPARVAAVSTHVALGSYAPLTRHGTLVVEDVVASCFAAVADHHLAQLAFWPLRLFPSLAWGSWTPSEGVHWYPQMLYRLGRLLLEESTFHPLGMSGAGS
partner: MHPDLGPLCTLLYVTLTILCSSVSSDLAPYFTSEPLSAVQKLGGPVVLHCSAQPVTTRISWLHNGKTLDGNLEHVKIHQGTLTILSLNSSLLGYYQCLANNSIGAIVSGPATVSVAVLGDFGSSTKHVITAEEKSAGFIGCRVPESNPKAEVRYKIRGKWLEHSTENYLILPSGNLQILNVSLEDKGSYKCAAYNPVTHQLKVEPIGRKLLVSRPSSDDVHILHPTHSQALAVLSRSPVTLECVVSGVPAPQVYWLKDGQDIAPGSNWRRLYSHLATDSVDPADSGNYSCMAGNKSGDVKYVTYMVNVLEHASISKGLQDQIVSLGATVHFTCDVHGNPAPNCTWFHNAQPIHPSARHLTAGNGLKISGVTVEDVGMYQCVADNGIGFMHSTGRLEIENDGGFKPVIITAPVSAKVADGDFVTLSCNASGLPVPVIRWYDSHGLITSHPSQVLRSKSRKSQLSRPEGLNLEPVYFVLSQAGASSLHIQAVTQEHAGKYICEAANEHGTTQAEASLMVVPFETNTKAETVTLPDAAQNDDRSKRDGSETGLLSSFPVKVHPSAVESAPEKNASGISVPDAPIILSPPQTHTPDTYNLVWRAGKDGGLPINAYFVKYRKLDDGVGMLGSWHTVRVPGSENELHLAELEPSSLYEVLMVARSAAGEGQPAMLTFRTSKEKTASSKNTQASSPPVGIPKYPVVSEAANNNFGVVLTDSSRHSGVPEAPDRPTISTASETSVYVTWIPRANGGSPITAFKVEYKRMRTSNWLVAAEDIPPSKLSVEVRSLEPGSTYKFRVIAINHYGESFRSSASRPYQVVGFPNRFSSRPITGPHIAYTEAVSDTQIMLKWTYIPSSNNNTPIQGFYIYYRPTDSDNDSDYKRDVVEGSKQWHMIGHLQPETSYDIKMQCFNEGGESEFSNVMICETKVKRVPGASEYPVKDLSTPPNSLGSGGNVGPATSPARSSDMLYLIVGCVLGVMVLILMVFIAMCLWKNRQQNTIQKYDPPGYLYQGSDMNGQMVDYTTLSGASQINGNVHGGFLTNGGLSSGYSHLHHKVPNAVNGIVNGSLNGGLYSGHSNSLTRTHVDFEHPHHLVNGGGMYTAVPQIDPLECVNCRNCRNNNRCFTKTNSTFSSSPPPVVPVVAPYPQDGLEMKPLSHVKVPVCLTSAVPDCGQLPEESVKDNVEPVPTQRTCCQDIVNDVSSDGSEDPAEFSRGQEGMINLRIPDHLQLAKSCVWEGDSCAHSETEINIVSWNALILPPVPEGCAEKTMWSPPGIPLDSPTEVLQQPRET

Variants of: B1
Settings: with cdon_human CDON
In the case of E131K, the “effect of a mutation on the interaction” value is reported as “disrupting interaction”.
